Data set [1] deals with biotin-IgE (indirect labeling) (UniProt P01854). Briefly: microarray fluorescence. To be noted: indirect label, PBSMTB for IgE microarrays (full recipe not in material; PBS-based wash: 8.1 mM Na2HPO4, 137 mM NaCl, 1 mM MgCl2, pH 7.4), temperature not stated, thrombin ….
Data set [2] has as its target Cy3-IgE (direct labeling) (UniProt P01854). Briefly: microarray fluorescence. The note with it: direct label, PBSMTB for IgE microarrays (full recipe not in material; PBS-based wash: 8.1 mM Na2HPO4, 137 mM NaCl, 1 mM MgCl2, pH 7.4), temperature not stated, thrombin ….
Data set [3] addresses IgE (cited assays) (human) (UniProt P01854). Kind of data set: filter binding. To be noted: PBSMTB for IgE microarrays (full recipe not in material; PBS-based wash: 8.1 mM Na2HPO4, 137 mM NaCl, 1 mM MgCl2, pH 7.4), temperature not stated, thrombin …, cited from earlier work.
Data set [4] shares this target. Briefly: fluorescence anisotropy. The note with it: not immobilized; PBSMTB for IgE microarrays (full recipe not in material; PBS-based wash: 8.1 mM Na2HPO4, 137 mM NaCl, 1 mM MgCl2, pH 7.4); temperature not stated; thrombin …; cited from earlier work. For orientation: Polarisation of emitted light reports the rotation of a fluorescent probe.
Data set [5] has the same target. Kind of data set: SPR. To be noted: PBSMTB for IgE microarrays (full recipe not in material; PBS-based wash: 8.1 mM Na2HPO4, 137 mM NaCl, 1 mM MgCl2, pH 7.4), temperature not stated, thrombin …, cited from earlier work.
Setting [6] is: A linker, A linker to array surface.
[7] abbreviates: T linker, T linker to array surface.
The mark [8] stands for this setting: C linker, C linker to array surface.
Setting [9] is: G linker, G linker to array surface.

Turning to “GGGGCACGTTTATCCGTCCCTCCTAGTGGCGTGCCCC [IgE_17-4, A linker]”, the Kd – broadly, the concentration at which binding is half-saturated – in data set [1] (setting [6]) came to 30.9 nM; in data set [2] (setting [6]), 63.7 nM.

In data set [1] (setting [7]), “CACGTTTATCCGTCCCTCCTAGTGGCGTG [IgE_17-1 (IgE_D17-1)]” had a Kd of 73.4 nM.

Consider “GGGGCACGTTTATCCGTCCCTCCTAGTGGCGTGCCCC [IgE_17-4, cited assays]”, for which the Kd in data set [3] (not immobilized) is 9 nM; in data set [4], 15 nM; in data set [5] (aptamer immobilized on surface), 74.8 nM; in data set [5] (aptamer not immobilized), 4.7 nM.

Regarding “GGGGCACGTTTATCCGTCCCTCCTAGTGGCGTGCCCC [IgE_17-4 (IgE_D17-4), T linker]”, the Kd in data set [1] (setting [7]) came to 29.5 nM; in data set [2] (D/P 2.4, T linker 10-15, T linker to array surface), 66.3 nM.

With “GGGGCACGTTTATCCGTCCCTCCTAGTGGCGTGCCCC [IgE_17-4, C linker]”, the figures for the Kd in data set [1] (setting [8]) and in data set [2] (setting [8]) were 30.8 nM and 61.8 nM, respectively.

Turning to “AGGGCACGTTTATCCGTCCCTCCTAGTGGCGTGCCCT [IgE_D17-4_DM1_37]”, the results for the Kd in data set [1] (setting [7]) and in data set [2] (setting [7]) were 29.9 nM and 82.3 nM, respectively.

With “GGGGCACGTTTATCCGTCCCTCCTAGTGGCGTGCCCC [IgE_17-4, G linker]”, the Kd in data set [1] (setting [9]) came to 29.5 nM; in data set [2] (setting [9]), 86.5 nM.

“TGGGCACGTTTATCCGTCCCTCCTAGTGGCGTGCCCC [IgE_D17-4_SM1]”: the Kd in data set [1] (setting [7]) is 28.8 nM; in data set [2] (setting [7]), 79.9 nM.

As to “CACGTTTATCCGTCCCTCCTAGTGGCGTG [IgE_17-1, cited assay]”, in data set [3] (solution), the Kd was 82 nM.

The values are drawn from article PMC4794571.
